According to publication PMC2912413:

Target: alternative Replication Protein A complex (RPA1, RPA4 and RPA3) (human) (UniProt P27694)
Test: ELISA

Chain of alternative Replication Protein A complex (RPA1, RPA4 and RPA3) (human) (P27694 whole entry, chain 1 of 3): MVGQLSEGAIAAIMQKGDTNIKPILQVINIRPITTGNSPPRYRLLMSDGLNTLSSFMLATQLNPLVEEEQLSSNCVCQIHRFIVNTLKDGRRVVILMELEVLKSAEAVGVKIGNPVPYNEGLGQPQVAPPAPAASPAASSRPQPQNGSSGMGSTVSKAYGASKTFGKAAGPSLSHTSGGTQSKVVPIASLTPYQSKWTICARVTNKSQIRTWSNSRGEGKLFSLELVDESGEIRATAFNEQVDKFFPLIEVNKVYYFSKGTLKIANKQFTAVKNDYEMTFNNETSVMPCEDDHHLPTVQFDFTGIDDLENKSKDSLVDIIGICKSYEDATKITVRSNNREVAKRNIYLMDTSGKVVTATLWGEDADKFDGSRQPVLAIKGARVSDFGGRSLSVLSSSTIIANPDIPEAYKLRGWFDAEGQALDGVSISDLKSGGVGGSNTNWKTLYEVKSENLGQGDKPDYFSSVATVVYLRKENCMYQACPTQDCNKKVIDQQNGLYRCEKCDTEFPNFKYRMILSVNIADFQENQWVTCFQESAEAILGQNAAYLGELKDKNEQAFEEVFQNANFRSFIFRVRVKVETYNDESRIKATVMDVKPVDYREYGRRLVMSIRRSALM
Chain of alternative Replication Protein A complex (RPA1, RPA4 and RPA3) (human) (Q13156 whole entry, chain 2 of 3, further chain): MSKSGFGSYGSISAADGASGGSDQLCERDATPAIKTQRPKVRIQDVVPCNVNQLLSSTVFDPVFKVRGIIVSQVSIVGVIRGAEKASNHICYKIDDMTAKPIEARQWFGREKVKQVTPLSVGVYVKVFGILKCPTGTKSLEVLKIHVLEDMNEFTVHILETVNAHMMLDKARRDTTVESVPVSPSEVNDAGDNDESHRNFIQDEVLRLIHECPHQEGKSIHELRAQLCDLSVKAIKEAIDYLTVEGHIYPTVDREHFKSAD
Chain of alternative Replication Protein A complex (RPA1, RPA4 and RPA3) (human) (P35244 whole entry, chain 3 of 3, further chain): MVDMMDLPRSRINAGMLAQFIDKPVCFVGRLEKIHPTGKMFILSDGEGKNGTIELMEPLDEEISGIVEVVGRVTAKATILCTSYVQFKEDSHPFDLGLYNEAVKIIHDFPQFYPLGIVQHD

- percent decrease of the ELISA interaction compared to RPA: 75%
Substance: human DNA polymerase α/primase complex (from UniProt P09884 1-1462; Q14181 1-598; P49643 1-509; P49642 1-420)
